Test results: article PMC9763686 (The Journal of Biological Chemistry, 2022)

What was measured:
Assay in all cases: ELISA
Settings in all cases: one partner purified
[1] = target: H1N1-NP (nucleoprotein of A/Guangzhou/01/2009 (H1N1)) (Influenza A virus A/Guangzhou/01/2009 …, UniProt C3W5S2, strain)
[2] = target: IBV-NP (nucleoprotein of influenza B virus B/Yamagata/16/1988) (Influenza B virus B/Yamagata/16/1988, UniProt Q82662, strain)
[3] = target: H9N2-NP fragment 1 to 1308 bp (N436 amino acids) (Influenza A virus …, UniProt W5RGA6)
[4] = target: H9N2-NP fragment 1 to 1215 bp (N405 amino acids) (Influenza A virus …, UniProt W5RGA6)
[5] = target: H9N2-NP fragment 1 to 1167 bp (N389 amino acids) (Influenza A virus …, UniProt W5RGA6)
[6] = target: H9N2-NP fragment 1 to 1182 bp (N394 amino acids) (Influenza A virus …, UniProt W5RGA6)

Binder | binding result [1] | binding result [2] | binding result [3] | binding result [4] | binding result [5] | binding result [6]
H9N2-NP-Nb5-HRP (VHH) VHH: ESGGGLVQPGGSLRLSCAASGFPFSDYDMNWARQAPGKELEDVSAISSGGTYTYYADSVKGRFTISRDNAKNTLYLQLNSLQTEDTAMYYCGRGWTSGYKSRGQGTQVTVSS | binds | no binding | binds | binds | binds | binds
H9N2-NP-Nb18-HRP (VHH) VHH: ESGGGSVQAGGSLRLSCAASHTYGTYAMAWFRQAPGEEREGVAAIDSDGETIYADSVKGRFTISRDNAKNILYLQMNSLKPEDTAMYYCAEDLRGVWYGRLELRPGRFTYWGQGTQVTVSS | binds | no binding | – | – | – | –
H9N2-NP-Nb42-HRP (VHH) VHH: ESGGESVQAGGSLRLSCATSGFTYNRSYCMAWFRQVLGKEREGVAVIDRVGGSTYYADSVKGRFTVSQDNAKTTLYLQMNSLTPEDTAMYYCAAVSTLMTTCQGLLAGHSQRYAYWGQGTQVTVSS | binds | no binding | – | – | – | –
H9N2-NP-Nb16-HRP (VHH) VHH: ESGGGSVQAGGSLRLSCAASGYTYSAYCMGWFRQAPGKEREEVASIDSDFGTNYADSVKGRFTISKDNPKNTLYLQMNNLKAEDTAMYYCAALKYSSSLCLDALPSRANYWGQGTQVTVSS | binds | no binding | – | – | – | –
H9N2-NP-Nb53-HRP (VHH) VHH: ESGGGSVQAGGSLRLSCAASGYTFSNVYMGWFRQAPGKEREGVAAIDRDGRTTYGDSVKGRFTISQDNAKNILYLQMSSLKPEDTATYYCAADPGYVELISEPLAGIWYRYWGQGTQVTVSS | binds | no binding | – | – | – | –
